In article PMC4529235, “The Human Acid-Sensing Ion Channel ASIC1a: Evidence for a Homotetrameric Assembly State at the Cell Surface” (PLoS ONE, 2015):

Legend:
[1] = biological target: the molecule itself; assay: cross-linking; 2 mM BMOE at the cell surface of intact Xenopus oocytes, cell-surface biotinylation, streptavidin beads, SDS-PAGE under reducing conditions, anti-His-tag western blot (ΔCCt background)
[2] = biological target: the molecule itself; assay: cross-linking; intracellular BMOE (2 mM, internal perfusion or injection) in Xenopus oocytes; SDS-PAGE under reducing conditions, anti-ASIC1a western blot
[3] = biological target: the molecule itself; assay: cross-linking; BMOE (0.5 or 2 mM) at the cell surface of Xenopus oocytes and CHO cells before lysis, cell-surface biotinylated fractions, SDS-PAGE under reducing conditions, anti-ASIC1a western blot; band intensities pooled over oocytes and CHO cells

| Protein | stoichiometry N [1] | also measured |
| --- | --- | --- |
| ASIC1a-ΔCCt (H8-hASIC1a-C466A/C471A/C497A/C528Stop) (natural protein, human, UniProt P78348-2 1-527, looked up, human ASIC1a lacking the cysteines of the C-terminus; C528Stop removes the last residue; also called Ctrl; source: Xenopus laevis oocytes, cRNA injected; not shown: His8, N-terminal, kept) MELKAEEEEVGGVQPVSIQAFASSSTLHGLAHIFSYERLSLKRALWALCFLGSLAVLLCVCTERVQYYFHYHHVTKLDEVAASQLTFPAVTLCNLNEFRFSQVSKNDLYHAGELLALLNNRYEIPDTQMADEKQLEILQDKANFRSFKPKPFNMREFYDRAGHDIRDMLLSCHFRGEVCSAEDFKVVFTRYGKCYTFNSGRDGRPRLKTMKGGTGNGLEIMLDIQQDEYLPVWGETDETSFEAGIKVQIHSQDEPPFIDQLGFGVAPGFQTFVACQEQRLIYLPPPWGTCKAVTMDSDLDFFDSYSITACRIDCETRYLVENCNCRMVHMPGDAPYCTPEQYKECADPALDFLVEKDQEYCVCEMPCNLTRYGKELSMVKIPSKASAKYLAKKFNKSEQYIGENILVLDIFFEVLNYETIEQKKAYEIAGLLGDIGGQMGLFIGASILTVLELFDYAYEVIKHKLARRGKAQKEAKRSSADKGVALSLDDVKRHNPAESLRGHPAGMTYAANILPHHPARGTFEDFT | 2 |  |
| V74C-ΔCCt (natural protein, human, UniProt P78348 1-527, looked up, human ASIC1a, ΔCCt background (C528Stop removes the last residue) with V74C; source: Xenopus laevis oocytes, cRNA injected; not shown: His8, N-terminal, kept) MELKAEEEEVGGVQPVSIQAFASSSTLHGLAHIFSYERLSLKRALWALCFLGSLAVLLCVCTERVQYYFHYHHCTKLDEVAASQLTFPAVTLCNLNEFRFSQVSKNDLYHAGELLALLNNRYEIPDTQMADEKQLEILQDKANFRSFKPKPFNMREFYDRAGHDIRDMLLSCHFRGEVCSAEDFKVVFTRYGKCYTFNSGRDGRPRLKTMKGGTGNGLEIMLDIQQDEYLPVWGETDETSFEAGIKVQIHSQDEPPFIDQLGFGVAPGFQTFVACQEQRLIYLPPPWGTCKAVTMDSDLDFFDSYSITACRIDCETRYLVENCNCRMVHMPGDAPYCTPEQYKECADPALDFLVEKDQEYCVCEMPCNLTRYGKELSMVKIPSKASAKYLAKKFNKSEQYIGENILVLDIFFEVLNYETIEQKKAYEIAGLLGDIGGQMGLFIGASILTVLELFDYAYEVIKHKLARRGKAQKEAKRSSADKGVALSLDDVKRHNPAESLRGHPAGMTYAANILPHHPARGTFEDFT | 4 |  |
| G430C-ΔCCt (natural protein, human, UniProt P78348 1-527, looked up, human ASIC1a, ΔCCt background (C528Stop removes the last residue) with G430C; source: Xenopus laevis oocytes, cRNA injected; not shown: His8, N-terminal, kept) MELKAEEEEVGGVQPVSIQAFASSSTLHGLAHIFSYERLSLKRALWALCFLGSLAVLLCVCTERVQYYFHYHHVTKLDEVAASQLTFPAVTLCNLNEFRFSQVSKNDLYHAGELLALLNNRYEIPDTQMADEKQLEILQDKANFRSFKPKPFNMREFYDRAGHDIRDMLLSCHFRGEVCSAEDFKVVFTRYGKCYTFNSGRDGRPRLKTMKGGTGNGLEIMLDIQQDEYLPVWGETDETSFEAGIKVQIHSQDEPPFIDQLGFGVAPGFQTFVACQEQRLIYLPPPWGTCKAVTMDSDLDFFDSYSITACRIDCETRYLVENCNCRMVHMPGDAPYCTPEQYKECADPALDFLVEKDQEYCVCEMPCNLTRYGKELSMVKIPSKASAKYLAKKFNKSEQYIGENILVLDIFFEVLNYETIEQKKAYEIACLLGDIGGQMGLFIGASILTVLELFDYAYEVIKHKLARRGKAQKEAKRSSADKGVALSLDDVKRHNPAESLRGHPAGMTYAANILPHHPARGTFEDFT | 4 |  |
| Y426C-ΔCCt (natural protein, human, UniProt P78348 1-527, looked up, human ASIC1a, ΔCCt background (C528Stop removes the last residue) with Y426C; also called Y426C-CCt; source: Xenopus laevis oocytes, cRNA injected; not shown: His8, N-terminal, kept) MELKAEEEEVGGVQPVSIQAFASSSTLHGLAHIFSYERLSLKRALWALCFLGSLAVLLCVCTERVQYYFHYHHVTKLDEVAASQLTFPAVTLCNLNEFRFSQVSKNDLYHAGELLALLNNRYEIPDTQMADEKQLEILQDKANFRSFKPKPFNMREFYDRAGHDIRDMLLSCHFRGEVCSAEDFKVVFTRYGKCYTFNSGRDGRPRLKTMKGGTGNGLEIMLDIQQDEYLPVWGETDETSFEAGIKVQIHSQDEPPFIDQLGFGVAPGFQTFVACQEQRLIYLPPPWGTCKAVTMDSDLDFFDSYSITACRIDCETRYLVENCNCRMVHMPGDAPYCTPEQYKECADPALDFLVEKDQEYCVCEMPCNLTRYGKELSMVKIPSKASAKYLAKKFNKSEQYIGENILVLDIFFEVLNYETIEQKKACEIAGLLGDIGGQMGLFIGASILTVLELFDYAYEVIKHKLARRGKAQKEAKRSSADKGVALSLDDVKRHNPAESLRGHPAGMTYAANILPHHPARGTFEDFT | 4 |  |
| G433C-ΔCCt (natural protein, human, UniProt P78348 1-527, looked up, human ASIC1a, ΔCCt background (C528Stop removes the last residue) with G433C; source: Xenopus laevis oocytes, cRNA injected; not shown: His8, N-terminal, kept) MELKAEEEEVGGVQPVSIQAFASSSTLHGLAHIFSYERLSLKRALWALCFLGSLAVLLCVCTERVQYYFHYHHVTKLDEVAASQLTFPAVTLCNLNEFRFSQVSKNDLYHAGELLALLNNRYEIPDTQMADEKQLEILQDKANFRSFKPKPFNMREFYDRAGHDIRDMLLSCHFRGEVCSAEDFKVVFTRYGKCYTFNSGRDGRPRLKTMKGGTGNGLEIMLDIQQDEYLPVWGETDETSFEAGIKVQIHSQDEPPFIDQLGFGVAPGFQTFVACQEQRLIYLPPPWGTCKAVTMDSDLDFFDSYSITACRIDCETRYLVENCNCRMVHMPGDAPYCTPEQYKECADPALDFLVEKDQEYCVCEMPCNLTRYGKELSMVKIPSKASAKYLAKKFNKSEQYIGENILVLDIFFEVLNYETIEQKKAYEIAGLLCDIGGQMGLFIGASILTVLELFDYAYEVIKHKLARRGKAQKEAKRSSADKGVALSLDDVKRHNPAESLRGHPAGMTYAANILPHHPARGTFEDFT | 4 |  |
| wild type human ASIC1a (H8-ASIC1a) (natural protein, UniProt P78348-2 1-528, looked up, ends with the terminal Cys (C528); Same construct expressed in two hosts; the printed band intensities pool oocytes and CHO cells; also called ASIC1a wt; hASIC1a; source: Xenopus laevis oocytes, cRNA injected; CHO-K1 cells, transfected; not shown: His8, N-terminal, kept) MELKAEEEEVGGVQPVSIQAFASSSTLHGLAHIFSYERLSLKRALWALCFLGSLAVLLCVCTERVQYYFHYHHVTKLDEVAASQLTFPAVTLCNLNEFRFSQVSKNDLYHAGELLALLNNRYEIPDTQMADEKQLEILQDKANFRSFKPKPFNMREFYDRAGHDIRDMLLSCHFRGEVCSAEDFKVVFTRYGKCYTFNSGRDGRPRLKTMKGGTGNGLEIMLDIQQDEYLPVWGETDETSFEAGIKVQIHSQDEPPFIDQLGFGVAPGFQTFVACQEQRLIYLPPPWGTCKAVTMDSDLDFFDSYSITACRIDCETRYLVENCNCRMVHMPGDAPYCTPEQYKECADPALDFLVEKDQEYCVCEMPCNLTRYGKELSMVKIPSKASAKYLAKKFNKSEQYIGENILVLDIFFEVLNYETIEQKKAYEIAGLLGDIGGQMGLFIGASILTVLELFDYAYEVIKHKLCRRGKCQKEAKRSSADKGVALSLDDVKRHNPCESLRGHPAGMTYAANILPHHPARGTFEDFTC |  | stoichiometry N [2]: 4 |
| ASIC1a G433C (with intact C-terminal cysteines) (natural protein, human, UniProt P78348-2 1-528, looked up, human ASIC1a with G433C, C-terminal cysteines intact; The methods describe G433C only on the ΔCCt template; the results say that this G433C has intact C-terminal cysteines; source: Xenopus laevis oocytes, cRNA injected; CHO-K1 cells, transfected; not shown: His8, N-terminal, kept) MELKAEEEEVGGVQPVSIQAFASSSTLHGLAHIFSYERLSLKRALWALCFLGSLAVLLCVCTERVQYYFHYHHVTKLDEVAASQLTFPAVTLCNLNEFRFSQVSKNDLYHAGELLALLNNRYEIPDTQMADEKQLEILQDKANFRSFKPKPFNMREFYDRAGHDIRDMLLSCHFRGEVCSAEDFKVVFTRYGKCYTFNSGRDGRPRLKTMKGGTGNGLEIMLDIQQDEYLPVWGETDETSFEAGIKVQIHSQDEPPFIDQLGFGVAPGFQTFVACQEQRLIYLPPPWGTCKAVTMDSDLDFFDSYSITACRIDCETRYLVENCNCRMVHMPGDAPYCTPEQYKECADPALDFLVEKDQEYCVCEMPCNLTRYGKELSMVKIPSKASAKYLAKKFNKSEQYIGENILVLDIFFEVLNYETIEQKKAYEIAGLLCDIGGQMGLFIGASILTVLELFDYAYEVIKHKLCRRGKCQKEAKRSSADKGVALSLDDVKRHNPCESLRGHPAGMTYAANILPHHPARGTFEDFTC |  | stoichiometry N [3]: 4 |
